These results are taken from paper PMC7660256.

In the series the target is T1, PdhR (Escherichia coli K-12 W3110) (UniProt P0ACL9).
T1 sequence: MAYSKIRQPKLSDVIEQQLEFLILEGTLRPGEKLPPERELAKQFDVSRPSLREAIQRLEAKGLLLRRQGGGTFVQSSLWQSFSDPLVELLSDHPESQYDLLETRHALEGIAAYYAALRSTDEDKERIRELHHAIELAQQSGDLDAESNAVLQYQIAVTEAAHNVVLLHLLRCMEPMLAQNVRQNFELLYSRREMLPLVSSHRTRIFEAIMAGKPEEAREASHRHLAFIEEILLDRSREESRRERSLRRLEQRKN
Kind of series: EMSA. Particulars: Gel shift buffer (composition not given), 37 °C, 30 min; 0.2 pmol probe, 0-10 pmol PdhR; GelRed stain. gSELEX: 10 mM Tris-HCl pH 7.8 (4 °C), 3 mM Mg acetate ….

As for “CTCTATATCACTCTCACAAATTCGCTCAAATAATAAACAATAAACTCTGTTTTTTGATCTCACCCGGTAAAGTCGCCTATCTTTTCAGCAACAAAACTTGATTAACATCAATTTTGGTATGACCAATGCACCATTCATGTTATTCTCAATAGCGAAGAACATTTTCATTGCTGTAACCTGTTGTTAATTAAGAGCTATGTTAATAACCATTAATTAACAATTGGTTAATAAATTTAAGGGGGTCACG (double strand) [ndh probe]”, the binding result is given as “binds”.
